Tests used:
[1] = tested on: TGase from Bacteridium (CBS 495.74); assay: PMSF inhibition, putrescine assay; type: biochemical, Bacteridium sp. CBS 495.74; conditions: 1.6 mM PMSF; 1 h, 30° C., pH 8.5, α-casein + EDTA; -PMSF = 100
Description: (§1) Each of these washes takes place for 5 min. […] The washed filters are counted directly in scintillation vials.
(§2) A putrescine control assay was performed to investigate whether TGases from different bacterial strains are sensitive to PMSF (phenyl methyl sulfonyl fluoride).
(§3) The assay was run under optimized conditions (see examples 1-3), i.e. 1 h incubation at 30° C., pH 8.5 (2% α-casein+EDTA in 100 mM modified Britton-Robinson-buffer 0.1 M, pH 8.5). Final concentration of PMSF was 1.6 mM. As control an assay including propanol was included: propanol is the solvent of PMSF. This assay ensures that solvent effects are excluded. The assay contained 0.9 M 2-propanol i.e. the same concentration as in PMSF containing assay (addition of 8 μl propanol from 13 M instead of 8 μl PMSF in 2-propanol).

[2] = tested on: TGase from Bacteridium (DSM 10093); assay: PMSF inhibition, putrescine assay; type: biochemical, Bacteridium sp. DSM 10093; conditions: 1.6 mM PMSF; 1 h, 30° C., pH 8.5, α-casein + EDTA; -PMSF = 100
Description: as §1, §2, §3

[3] = tested on: TGase from Bacillus aneurinolyticus; assay: PMSF inhibition, putrescine assay; type: biochemical; conditions: 1.6 mM PMSF; 1 h, 30° C., pH 8.5, α-casein + EDTA; -PMSF = 100
Description: as §1, §2, §3

[4] = tested on: TGase from Bacillus badius; assay: PMSF inhibition, putrescine assay; type: biochemical; conditions: 1.6 mM PMSF; 1 h, 30° C., pH 8.5, α-casein + EDTA; -PMSF = 100
Description: as §1, §2, §3

[5] = tested on: TGase from Bacillus firmus; assay: PMSF inhibition, putrescine assay; type: biochemical; conditions: 1.6 mM PMSF; 1 h, 30° C., pH 8.5, α-casein + EDTA; -PMSF = 100
Description: as §1, §2, §3

[6] = tested on: TGase from Bacillus mycoides; assay: PMSF inhibition, putrescine assay; type: biochemical; conditions: 1.6 mM PMSF; 1 h, 30° C., pH 8.5, α-casein + EDTA; -PMSF = 100
Description: as §1, §2, §3

[7] = molecular target: T1, TGase from Streptomyces lydicus (Streptomyces nigrescens, UniProt A0ABY7I822); assay: PMSF inhibition, putrescine assay; type: biochemical
T1 construct: mature 331 aa, N-terminus […]
T1 sequence (A0ABY7I822 88-418): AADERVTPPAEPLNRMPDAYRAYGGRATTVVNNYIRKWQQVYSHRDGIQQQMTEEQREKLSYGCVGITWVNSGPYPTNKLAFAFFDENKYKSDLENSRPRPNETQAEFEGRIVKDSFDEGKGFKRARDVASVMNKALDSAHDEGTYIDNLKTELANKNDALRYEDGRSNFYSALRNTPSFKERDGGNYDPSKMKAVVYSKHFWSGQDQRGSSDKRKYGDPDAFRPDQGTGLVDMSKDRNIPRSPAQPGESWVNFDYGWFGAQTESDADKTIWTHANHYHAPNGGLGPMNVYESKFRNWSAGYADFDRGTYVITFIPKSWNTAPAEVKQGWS
Description: as §1, §2, §3

[8] = molecular target: T2, purified transglutaminase from S. mobaraense (Streptomyces mobaraensis, UniProt P81453); assay: PMSF sensitivity of purified transglutaminase; type: biochemical, Streptoverticillium mobaraense
T2 sequence (P81453 77-407): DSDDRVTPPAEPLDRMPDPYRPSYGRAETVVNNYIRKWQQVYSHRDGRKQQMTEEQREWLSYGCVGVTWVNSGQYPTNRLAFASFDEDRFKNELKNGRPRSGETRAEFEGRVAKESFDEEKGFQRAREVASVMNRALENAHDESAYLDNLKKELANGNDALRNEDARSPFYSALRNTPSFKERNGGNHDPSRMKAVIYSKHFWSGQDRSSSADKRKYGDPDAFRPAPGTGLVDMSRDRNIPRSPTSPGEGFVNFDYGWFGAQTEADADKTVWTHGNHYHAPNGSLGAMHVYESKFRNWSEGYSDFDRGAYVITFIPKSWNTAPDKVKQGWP
Description: as §2

[9] = tested on: TGase from strain Moo5A10; assay: PMSF inhibition, putrescine assay; type: biochemical, Moo5A10 (DSM 10094); conditions: 1.6 mM PMSF; 1 h, 30° C., pH 8.5, α-casein + EDTA; -PMSF = 100
Description: as §1, §2, §3

[10] = molecular target: α-casein
[11] = molecular target: Ca2+-independent transglutaminase from Streptomyces platensis (Streptomyces platensis, UniProt A5PHK5); conditions: 50 μM inhibitor, nine fold molar excess to cysteine; 2 h at room temperature in the putrescine assay; duplicate
Chain of Ca2+-independent transglutaminase from Streptomyces platensis (A5PHK5 88-418): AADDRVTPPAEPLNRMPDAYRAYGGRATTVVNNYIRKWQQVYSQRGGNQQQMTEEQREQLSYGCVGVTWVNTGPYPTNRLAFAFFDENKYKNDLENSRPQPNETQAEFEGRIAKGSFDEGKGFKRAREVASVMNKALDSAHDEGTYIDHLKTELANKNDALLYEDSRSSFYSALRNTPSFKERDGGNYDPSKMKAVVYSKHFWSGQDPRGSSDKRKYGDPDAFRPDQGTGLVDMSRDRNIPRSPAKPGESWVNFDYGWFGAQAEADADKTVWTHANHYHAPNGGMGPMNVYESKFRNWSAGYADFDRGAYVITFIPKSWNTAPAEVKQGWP

[12] = molecular target: transglutaminase from S. mobaraense (Streptomyces mobaraensis, UniProt P81453); conditions: 1 mM inhibitor, preincubation 30 min at 25° C.; cited from earlier work

| Compound | Units/ml (putrescine assay) [10] | other results |
| --- | --- | --- |
| O=S(=O)(F)Cc1ccccc1 [PMSF, phenylmethylsulfonylfluoride] | – | Relative activity (%) +PMSP [1]: 75%; Relative activity (%) +PMSP [2]: 75%; Relative activity (%) +PMSP [3]: 47%; Relative activity (%) +PMSP [4]: 62%; Relative activity (%) +PMSP [5]: 55%; Relative activity (%) +PMSP [6]: 35%; Relative activity (%) +PMSP ([7]; 1.6 mM PMSF, 1 h, 30° C., pH 8.5, α-casein + EDTA, -PMSF = 100): 175%; sensitivity to PMSF ([7]; purified transglutaminase): insensitive; sensitivity to PMSF [8]: insensitive; Relative activity (%) +PMSP [9]: 75% |
| TGase sample of Bacillus mycoides (pool or library) | 0.4 units/ml | – |
| TGase sample of Bacillus firmus, ATCC 17060 (pool or library) | 0.6 units/ml | – |
| TGase sample of Bacillus megaterium, ATCC 15450 (pool or library) | 0.02 units/ml | – |
| TGase sample of Pseudomonas putida, NCIMB 9869 (pool or library) | 1.4 units/ml | – |
| transglutaminase from Streptomyces lydicus, NRRL B-3446 (former Streptomyces libani) (enzyme) | 1.3 units/ml | – |
| TGase sample of Pseudomonas putida, DSM 1693 (pool or library) | 0.84 units/ml | – |
| TGase sample of Bacillus sp., ATCC 21537 (pool or library) | 0.1 units/ml | – |
| TGase sample of Bacteridium sp., CBS 495.74 (pool or library) | 0.5 units/ml | – |
| TGase sample of Bacillus aneurinolyticus (pool or library) | 0.8 units/ml | – |
| TGase sample of Rothia dentocariosa (pool or library) | 0.9 units/ml | – |
| TGase sample of Streptomyces sioyaensis (pool or library) | 3.3 units/ml | – |
| O=C(O)CI [mono-iodoacetic acid] | – | residual activity [11]: no residual activity; residual activity [12]: 76% |
| TGase sample of B. amyloliquefaciens (pool or library) | 0.06 units/ml | – |
| TGase sample of Hydrogenophaga palleroni (Basonym: Pseudomonas palleroni) (pool or library) | 0.6 units/ml | – |
| TGase sample of Hafnia alvei (pool or library) | 0.3 units/ml | – |
| TGase sample of Bacillus badius (pool or library) | 0.8 units/ml | – |
| TGase sample of Streptomyces nigrescens (pool or library) | 0.3 units/ml | – |
| TGase sample of Bacillus megaterium, ATCC 13632 (pool or library) | 0.02 units/ml | – |
| TGase sample of Kitasatao purpurea (pool or library) | 0.3 units/ml | – |
| TGase sample of Bacillus firmus, DSM 12 (pool or library) | 0.03 units/ml | – |
